Results: article PMC8253215

What was measured:
[1] = molecular target: rat follicle-stimulating hormone receptor (rFSHR) (rat) (UniProt P20395)
[2] = molecular target: rat luteinizing hormone/chorionic gonadotropin receptor (rLH/CGR) (rat) (UniProt P16235)
Chain of UniProt P16235 (P16235 27-700): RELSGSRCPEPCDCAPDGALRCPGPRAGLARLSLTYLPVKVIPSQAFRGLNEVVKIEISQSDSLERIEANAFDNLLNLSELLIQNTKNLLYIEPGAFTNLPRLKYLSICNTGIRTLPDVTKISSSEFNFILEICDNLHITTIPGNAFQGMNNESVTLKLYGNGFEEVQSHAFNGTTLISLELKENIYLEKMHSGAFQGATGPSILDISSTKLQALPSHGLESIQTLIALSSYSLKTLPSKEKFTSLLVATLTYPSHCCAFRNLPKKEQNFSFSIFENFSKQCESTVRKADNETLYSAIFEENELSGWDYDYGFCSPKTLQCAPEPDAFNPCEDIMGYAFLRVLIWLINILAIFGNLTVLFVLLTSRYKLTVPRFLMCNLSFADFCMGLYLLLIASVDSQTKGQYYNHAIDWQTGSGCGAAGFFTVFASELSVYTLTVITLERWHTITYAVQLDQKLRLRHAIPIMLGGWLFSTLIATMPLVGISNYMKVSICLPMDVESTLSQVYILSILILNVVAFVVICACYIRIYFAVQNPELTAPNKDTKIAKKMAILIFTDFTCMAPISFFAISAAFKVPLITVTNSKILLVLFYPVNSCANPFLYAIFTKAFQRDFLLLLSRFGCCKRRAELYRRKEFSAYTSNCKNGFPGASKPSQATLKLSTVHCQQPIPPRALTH

Chain of UniProt P20395 (P20395 18-692): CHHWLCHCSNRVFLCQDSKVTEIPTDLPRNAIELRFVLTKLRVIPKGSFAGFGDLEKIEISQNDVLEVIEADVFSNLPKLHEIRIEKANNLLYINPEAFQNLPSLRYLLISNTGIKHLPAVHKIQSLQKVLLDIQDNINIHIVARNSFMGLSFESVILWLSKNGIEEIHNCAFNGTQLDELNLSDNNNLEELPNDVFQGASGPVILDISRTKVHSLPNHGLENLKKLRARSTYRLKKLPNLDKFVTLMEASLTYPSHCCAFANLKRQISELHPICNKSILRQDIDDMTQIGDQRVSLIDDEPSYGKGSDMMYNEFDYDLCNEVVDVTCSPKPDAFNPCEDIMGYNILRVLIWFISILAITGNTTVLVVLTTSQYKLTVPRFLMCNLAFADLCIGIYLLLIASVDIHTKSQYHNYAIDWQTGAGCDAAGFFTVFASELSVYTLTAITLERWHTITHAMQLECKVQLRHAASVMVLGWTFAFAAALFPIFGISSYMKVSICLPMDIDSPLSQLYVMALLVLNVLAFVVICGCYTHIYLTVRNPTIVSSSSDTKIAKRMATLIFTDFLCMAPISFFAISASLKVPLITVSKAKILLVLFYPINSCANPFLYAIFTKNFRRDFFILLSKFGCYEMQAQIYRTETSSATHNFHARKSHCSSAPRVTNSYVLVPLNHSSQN

| EC50 of cAMP response (HTRF) in CHO-K1 cells expressing rFSHR [1] [ng/mL] | EC50 of cAMP response (HTRF) in CHO-K1 cells expressing rLH/CGR [2] [ng/mL] | Substance |
| --- | --- | --- |
| 0.99 | 0.018 | rec-eCGβF103P/α (from UniProt P08751 21-169; P01220 25-120) (ligand) |
| 6.4 | 0.037 | rec-eCGβF103P;R104K/α (from UniProt P08751 21-169; P01220 25-120) (ligand) |
| 0.98 | 0.033 | rec-eCGβR104K/α (from UniProt P08751 21-169; P01220 25-120) (ligand) |
| 0.79 | 0.015 | rec-eCGβV102G/α (from UniProt P08751 21-169; P01220 25-120) (ligand) |
| 1.75 | 0.016 | rec-eCGβV102G;F103P/α (from UniProt P08751 21-169; P01220 25-120) (ligand) |
| 2.86 | 0.013 | rec-eCGβV102G;F103P;R104K/α (from UniProt P08751 21-169; P01220 25-120) (ligand) |
| 5.45 | 0.038 | rec-eCGβV102G;R104K/α (from UniProt P08751 21-169; P01220 25-120) (ligand) |
| 0.16 | – | single-chain recombinant equine chorionic gonadotropin β/α, wild type (rec-eCGβ/α-wt) (from UniProt P08751 21-169; P01220 25-120) (ligand) |
